From patent US20180264110A1 (STSCIENCES, published 2018) come the findings set out here.

The target of assay [1] is T1, N75/2NQ (human, UniProt Q7Z6A9).
T1 construct: double mutant, single glycosylation site N75; One member of the group m43; also called BTLA double mutant that retains only the N75 glycosylation site
Nature of the assay: Western blot of BTLA WT and glycosylation-site mutants probed with STC626 [continued]. On the procedure:
(§1) Immunoblot analysis was performed as described previously (Lim et al., 2008, Gastroenterology, 135:21 28-40; and Lee et al., 2007, Cell, 130:440-455). Image acquisition and quantitation of band intensity were performed using a Chemdoc Imager (BioRad, Hercules, Calif., US). The secondary antibodies were anti-mouse or -rabbit Alexa Fluor 488 or 594, and nuclei were stained with 4′,6-diamidino-2-phenylindole (DAPI) (Life Technologies, Carlsbad, Calif., US).
(§2) In the Western blot assays, anti-BTLA mAbs were tested for their ability to recognize fully glycosylated wild-type BTLA and to recognize certain BTLA mutants lacking two (N75/2NQ, N94/2NQ, N116/2NQ) or all three (3NQ) of BTLA's N-glycosylation sites. […] Generally, the band intensities shown in the Western blots of FIG. 2 indicate the specific glycosylation motif recognized by each of the tested antibodies and the binding strength of the tested antibodies to the recognized glycosylation motifs.

The target in a further assay is T2, BTLA triple mutant (3NQ) (human, UniProt Q7Z6A9 31-289, limits assumed).
T2 construct: N to Q read from the label
T2 chain: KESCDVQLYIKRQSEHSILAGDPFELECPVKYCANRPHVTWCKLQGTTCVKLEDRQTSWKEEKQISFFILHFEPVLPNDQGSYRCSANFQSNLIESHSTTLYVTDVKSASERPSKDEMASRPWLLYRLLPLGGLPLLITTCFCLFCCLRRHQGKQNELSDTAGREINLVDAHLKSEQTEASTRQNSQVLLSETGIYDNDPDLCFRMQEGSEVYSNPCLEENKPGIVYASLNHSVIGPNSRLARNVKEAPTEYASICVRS
Nature of the assay: Western blot. On the procedure:
as §1, §2

Assay [2] addresses T1, N75/2NQ. Kind of assay: Western blot of BTLA WT and glycosylation-site mutants probed with STC613 [continued]. On the procedure: as §1, §2

B1: STC626 (antibody, V domains shown)
VH: QIQLVQSGPELKKPGETVKISCKASGYTFTNYGMNWVKQAPGKGLKWMGWINTNTGEPTYAEEFKGRIAFSLESSASTAYLQINNLKNEDTATYFCAREGVRRGGYFFDYWGQGTTLTVSS
VL: DIQMTQSPASLSVSVGETVTITCRASENIYSNLAWYQQKQGKSPQLLVYAATNLADGVPSRFSGSGSGTQYSLKINSLQSEDFGSYHCQHFWGFPFTFGAGTKLEIKR
In the case of B1, the figures for the binding result with N75/2NQ [1] and in the assay with BTLA triple mutant (3NQ) were “binds” and “no binding”, respectively.

B2: STC613 (antibody, V domains shown)
VH: EVQLQQSGAELVRPGASVKLSCTASGFNIRDDYVHWLKQRPDQGLEWIGRIDPANGKTKYDPKFQDKATITADTSSNTAYLQLSSLTSEDTAVYFCVREGGSNYDYAMDYWGQGTSVTVSS
VL: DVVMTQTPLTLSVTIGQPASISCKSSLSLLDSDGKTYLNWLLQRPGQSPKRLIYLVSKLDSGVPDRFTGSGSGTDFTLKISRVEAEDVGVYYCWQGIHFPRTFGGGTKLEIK
notes: also called STM613
In the case of B2, the binding result with N75/2NQ [2] is reported as “binds”; with BTLA triple mutant (3NQ), “no binding”.
